The target in assay [1] is T1, CD20 on Raji cells (CD20+/CD3-) (human, UniProt P11836 1-297).
T1 sequence (looked up): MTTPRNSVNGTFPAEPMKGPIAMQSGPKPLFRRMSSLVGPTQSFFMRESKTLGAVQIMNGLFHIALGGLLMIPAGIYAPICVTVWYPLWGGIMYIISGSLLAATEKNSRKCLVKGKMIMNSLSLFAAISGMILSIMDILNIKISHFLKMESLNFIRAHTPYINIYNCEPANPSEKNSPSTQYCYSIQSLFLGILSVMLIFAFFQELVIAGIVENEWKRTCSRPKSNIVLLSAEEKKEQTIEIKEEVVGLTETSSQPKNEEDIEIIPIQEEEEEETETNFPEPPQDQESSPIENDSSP
Nature of the assay: cell-based or functional assay.

Assay [2] has as its target T2, CD3 antigen: 1:1 mixture of human CD3 e protein and human CD3 d protein (Sino Biological Inc.) (human, UniProt P07766 23-126; P04234 22-105).
T2 construct: Bought recombinant proteins, mixed 1:1 and coated on the ELISA plate; also called antigen CD3
Nature of the assay: ELISA, CD3 e/d mixture coated, anti-human IgG-HRP detection. How it is done:
4) Addition of Samples: the bispecific antibody sample was diluted with PBS to 10 μg/ml and then subjected to a 4-fold gradient dilution at a total of eight concentrations. The diluted samples were added at 100 μL/well, and two replicate wells were used for each antibody concentration. The reaction wells were sealed with a plate sealing film and incubated at room temperature for 1.5 hours. The plate was washed 5 times with 0.05% PBST.
5) Addition of Secondary Antibody: HRP-labeled Goat Anti-Human IgG (H+L) (purchased from Proteintech company, product catalog No. SA00001-17) was diluted with PBS at a ratio of 1:2000 and added in a volume of 100 μL to each well. The reaction wells were sealed with a plate sealing film and incubated at room temperature for 1 hour. The plate was washed 5 times with 0.05% PBST.
7) Stopping: 50 μL of a stop solution (1 M HCl) was added to each well to stop the chromogenic reaction. After 3 min, the OD value of the reaction solution in each well was read at 450 nm on a microplate reader.
In general terms: ELISA stands for enzyme-linked immunosorbent assay.

T2 sequence (P07766 23-126 limits assumed, chain 1 of 2): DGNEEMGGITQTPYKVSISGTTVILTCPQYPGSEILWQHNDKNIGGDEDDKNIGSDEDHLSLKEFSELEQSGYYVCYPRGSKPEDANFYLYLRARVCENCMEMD
T2 sequence (P04234 22-105 limits assumed, chain 2 of 2): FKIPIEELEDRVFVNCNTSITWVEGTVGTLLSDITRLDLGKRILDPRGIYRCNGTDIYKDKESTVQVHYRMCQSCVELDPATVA

B1: CD20×CD3 BsAb V1 (bispecific antibody, human IgG1, kappa, L234A L235A)
heavy 1: EVQLVESGGGLVQPGRSLRLSCAASGFTFNDYAMHWVRQAPGKGLEWVSTISWNSGSIGYADSVKGRFTISRDNAKKSLYLQMNSLRAEDTALYYCAKDIQYGNYYYGMDVWGQGTTVTVSSASTKGPSVFPCAPSSKSTSGGTAALGCLVKDYFPEPVTVSWNSGALTSGVHTFPAVLQSSGLYSLSSVVTVPSSSLGTQTYICNVNHKPSNTKVDKKVEPKSSDKTHTCPPCPAPEAAGGPSVFLFPPKPKDTLMISRTPEVTCVVVDVSHEDPEVKFNWYVDGVEVHNAKTKPREEQYNSTYRVVSVLTVLHQDWLNGKEYKCKVSNKALPAPIEKTISKAKGQPREPQVYTLPPSREEMTKNQVSLTCLVKGFYPSDIAVEWESNGQPENNYKTDDDVLDSDGSFFLYSKLTVDKSRWQQGNVFSCSVMHEALHNHYTQKSLSLSPGK
light 1: not shown
heavy 2: EVQLVESGGGLVQPGGSLKLSCAASGFTFNTYAMNWVRQAPGKGLEWVARIRSKYNNYATYYADSVKDRFTISRDDSKNTAYLQMNNLKTEDTAMYYCVRHGNFGNSYVSWFAYWGQGTLVTVSSASTKGPSVFPLAPSSKSTSGGTAALGCLVKDYFPEPVTVSWNSGALTSGVHTFPAVLQSSGLYSLSSVVTVPSSSLGTQTYICNVNHKPSNTKVDKKVEPKSCDKTHTCPPCPAPEAAGGPSVFLFPPKPKDTLMISRTPEVTCVVVDVSHEDPEVKFNWYVDGVEVHNAKTKPREEQYNSTYRVVSVLTVLHQDWLNGKEYKCKVSNKALPAPIEKTISKAKGQPREPQVYTLPPSRDELTKNQVSLTCLVKGFYPSDIAVEWESNGQPENNYKTTKKKLDSDGSFFLYSKLTVDKSRWQQGNVFSCSVMHEALHNHYTQKSLSLSPGK
light 2: DIQMTQEPSLTTSPGGTVTLTCRSSTGAVTTSNYANWVQEKPGQAPRGLIGGTNKRAPGTPARFSGSLIGGKAALTITGVQPEDEAIYFCALWYSNLWVFGGGTKLEIKRTVAAPSVFIFPPSDEQLKSGTASVVCLLNNFYPREAKVQWKVDNALQSGNSQESVTEQDSKDSTYSLSSTLTLSKADYEKHKVYACEVTHQGLSSPVTKSFNRGEC
notes: Four-chain IgG-like bispecific antibody with a heterodimeric Fc; The anti-CD20 arm is derived from Ofatumumab; the anti-CD3 arm is a humanized murine antibody without the N106T mutation; Expressed in HEK293 cells behind an IL-2 signal peptide supplied by the plasmid; also called CD20×CD3 bispecific antibody V1
On to B1, for which, in assay [1], the “ADCC activity to kill target tumor cells (Raji and Daudi cells), EC50” value is 0.2 ng/mL; the “killing of Raji cells by hPBMCs (LDH release), EC50” value is 0.21 ng/mL. Besides, the EC50 in assay [2] is 818 ng/mL.

B2: CD20×CD3 BsAb V2 (bispecific antibody, human IgG1, kappa, L234A L235A)
heavy 1: EVQLVESGGGLVQPGRSLRLSCAASGFTFNDYAMHWVRQAPGKGLEWVSTISWNSGSIGYADSVKGRFTISRDNAKKSLYLQMNSLRAEDTALYYCAKDIQYGNYYYGMDVWGQGTTVTVSSASTKGPSVFPCAPSSKSTSGGTAALGCLVKDYFPEPVTVSWNSGALTSGVHTFPAVLQSSGLYSLSSVVTVPSSSLGTQTYICNVNHKPSNTKVDKKVEPKSSDKTHTCPPCPAPEAAGGPSVFLFPPKPKDTLMISRTPEVTCVVVDVSHEDPEVKFNWYVDGVEVHNAKTKPREEQYNSTYRVVSVLTVLHQDWLNGKEYKCKVSNKALPAPIEKTISKAKGQPREPQVYTLPPSREEMTKNQVSLTCLVKGFYPSDIAVEWESNGQPENNYKTDDDVLDSDGSFFLYSKLTVDKSRWQQGNVFSCSVMHEALHNHYTQKSLSLSPGK
light 1: not shown
heavy 2: EVQLVESGGGLVQPGGSLKLSCAASGFTFNTYAMNWVRQAPGKGLEWVARIRSKYNNYATYYADSVKDRFTISRDDSKNTAYLQMNNLKTEDTAMYYCVRHGNFGTSYVSWFAYWGQGTLVTVSSASTKGPSVFPLAPSSKSTSGGTAALGCLVKDYFPEPVTVSWNSGALTSGVHTFPAVLQSSGLYSLSSVVTVPSSSLGTQTYICNVNHKPSNTKVDKKVEPKSCDKTHTCPPCPAPEAAGGPSVFLFPPKPKDTLMISRTPEVTCVVVDVSHEDPEVKFNWYVDGVEVHNAKTKPREEQYNSTYRVVSVLTVLHQDWLNGKEYKCKVSNKALPAPIEKTISKAKGQPREPQVYTLPPSRDELTKNQVSLTCLVKGFYPSDIAVEWESNGQPENNYKTTKKKLDSDGSFFLYSKLTVDKSRWQQGNVFSCSVMHEALHNHYTQKSLSLSPGK
light 2: DIQMTQEPSLTTSPGGTVTLTCRSSTGAVTTSNYANWVQEKPGQAPRGLIGGTNKRAPGTPARFSGSLIGGKAALTITGVQPEDEAIYFCALWYSNLWVFGGGTKLEIKRTVAAPSVFIFPPSDEQLKSGTASVVCLLNNFYPREAKVQWKVDNALQSGNSQESVTEQDSKDSTYSLSSTLTLSKADYEKHKVYACEVTHQGLSSPVTKSFNRGEC
notes: also called CD20×CD3 bispecific antibody V2
Turning to B2, in assay [1], the “ADCC activity to kill target tumor cells (Raji and Daudi cells), EC50” value was 0.2 ng/mL; the “killing of Raji cells by hPBMCs (LDH release), EC50” value amounted to 0.24 ng/mL. For the same molecule, the EC50 in assay [2] came to 2100 ng/mL.

As a reminder, the EC50 is the concentration giving half of the maximal effect.

The values are drawn from US20220324993A1 (EXCELMAB, published 2022).
